Starred links: 1 amine or outer side, 2 acyl side, 3 side chain; linkers in the order of their positions; H or OH if unused. Positions of bridges follow the written chain, without caps; N, C: chain ends. Non-standard residues stand in square brackets, D forms with d. Primed or numbered codes have the meaning given here. PyrS2(3) = (S)-3-amino-1-((pent-4-en-1-yloxy)carbonyl)pyrrolidine-3-carboxylic acid, stapling residue, C=CCCCOC(=O)N1CC[C@@](N[*:1])(C(=O)[*:2])C1; PyrS2″ = (S)-3-amino-1-((pent-4-en-1-yloxy)carbonyl)pyrrolidine-3-carboxylic acid (stapling residue), C=CCCCOC(=O)N1CC[C@@](N[*:1])(C(=O)[*:2])C1; B5(16) = 2-amino-2-(pent-4-en-1-yl)hept-6-enoic acid = 2,2-bis(4-pentenyl)glycine (stitching residue), C=CCCCC(CCCC=C)(N[*:1])C(=O)[*:2]; B5(4) = 2,2-bis(4-pentenyl)glycine = 2-amino-2-(pent-4-en-1-yl)hept-6-enoic acid (stitching residue), C=CCCCC(CCCC=C)(N[*:1])C(=O)[*:2]; B5(20) = 2-amino-2-(pent-4-en-1-yl)hept-6-enoic acid = bis(4-pentenyl)glycine, stitching residue, C=CCCCC(CCCC=C)(N[*:1])C(=O)[*:2]; B5(6) = 2-amino-2-(pent-4-en-1-yl)hept-6-enoic acid (bis(4-pentenyl)glycine), stitching residue, C=CCCCC(CCCC=C)(N[*:1])C(=O)[*:2]; PyrS2 = (S)-3-amino-1-((pent-4-en-1-yloxy)carbonyl)pyrrolidine-3-carboxylic acid, C=CCCCOC(=O)N1CC[C@@](N[*:1])(C(=O)[*:2])C1; B5″ = 2,2-bis(4-pentenyl)glycine, stitching residue, C=CCCCC(CCCC=C)(N[*:1])C(=O)[*:2]; Phe(2-CONH2) = NC(=O)c1ccccc1C[C@H](N)C(=O)O; Phe(2-Cl) = N[C@@H](Cc1ccccc1Cl)C(=O)O; Phe(2-OMe) = COc1ccccc1C[C@H](N)C(=O)O; Bta = N[C@@H](Cc1csc2ccccc12)C(=O)O; αAllylPro = C=CC[C@@]1(C(=O)O)CCCN1; tBuAla = CC(C)(C)C[C@H](N)C(=O)O; 3Thi = N[C@@H](Cc1ccsc1)C(=O)O; Cha = N[C@@H](CC1CCCCC1)C(=O)O; S8 = C=CCCCCCC[C@](C)(N)C(=O)O; Thr(ol) = C[C@@H](O)[C@H](N)CO; R5 = C=CCCC[C@@](C)(N)C(=O)O; Aib = CC(C)(N)C(=O)O
T1: full-length beta-Catenin (Uniprot ID P35222) (Homo sapiens (Human), UniProt P35222 1-781)
T1 construct: also called bCat; B-Catenin
T1 sequence: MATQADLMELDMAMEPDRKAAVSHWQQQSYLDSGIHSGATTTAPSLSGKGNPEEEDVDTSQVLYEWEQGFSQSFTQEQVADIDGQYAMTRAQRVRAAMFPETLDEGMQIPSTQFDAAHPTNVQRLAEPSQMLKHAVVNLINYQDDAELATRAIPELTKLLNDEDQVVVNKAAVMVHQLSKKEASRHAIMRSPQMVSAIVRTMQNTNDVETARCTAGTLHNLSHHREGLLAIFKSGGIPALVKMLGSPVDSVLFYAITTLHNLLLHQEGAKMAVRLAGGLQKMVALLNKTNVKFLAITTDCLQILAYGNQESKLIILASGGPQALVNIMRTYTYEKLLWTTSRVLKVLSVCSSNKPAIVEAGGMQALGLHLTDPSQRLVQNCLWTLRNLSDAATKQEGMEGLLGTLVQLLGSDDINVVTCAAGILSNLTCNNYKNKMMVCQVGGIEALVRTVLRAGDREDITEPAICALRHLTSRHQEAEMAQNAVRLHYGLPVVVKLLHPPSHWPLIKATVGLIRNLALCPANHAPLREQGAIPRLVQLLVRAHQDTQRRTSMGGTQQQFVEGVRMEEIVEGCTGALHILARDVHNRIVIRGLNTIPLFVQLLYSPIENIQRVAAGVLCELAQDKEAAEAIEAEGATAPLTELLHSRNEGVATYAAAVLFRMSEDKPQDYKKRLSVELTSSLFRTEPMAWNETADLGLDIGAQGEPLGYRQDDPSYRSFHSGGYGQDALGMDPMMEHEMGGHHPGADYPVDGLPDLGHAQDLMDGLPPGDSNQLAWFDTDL

T2: B-cat-Halo (UniProt P35222 1-781)
T2 sequence (looked up): T1 sequence

T3: B-cat-Halo (NanoBRET construct expressed in HEK293 cells) (UniProt P35222 1-781)
T3 sequence (looked up): T1 sequence

T4: full-length beta-Catenin (Uniprot ID P35222) (Homo sapiens (Human), UniProt P35222 1-781)
T4 construct: also called bCat
T4 sequence: T1 sequence

T5: B-cat-Halo (beta-catenin HaloTag construct expressed in HEK293 cells) (UniProt P35222 1-781)
T5 sequence (looked up): T1 sequence


target: T1, full-length beta-Catenin (Uniprot ID …); assay: FP competition: full-length beta-catenin 10 nM + 5FAM-TCF4(10-53) 10 nM
Protocol: (§1) The plate was incubated protected from light for 60 minutes at 20° C. prior to read. Reads were performed on a CLARIOstar plate reader (BMG Labtech) in duplicate, and data were fitted to a 1:1 binding model with hill slope using an in-house script. All provided concentrations are final concentrations.

Point of comparison: Ac-[αAllylPro]DI[B5(20)]DEAAFN[S8][Phe(2-CONH2)][Bta]H-NH2 (staple 1-4, 4-11, Stapled peptide composition) [I-514], IC50 0.03 µM. Against it:
- Ac-[αAllylPro]DI[B5(20)]DEAAFN[S8][Phe(2-OMe)][Bta]H-NH2 (staple 1-4, 4-11, Stapled peptide composition) [I-512] — 1.5-fold lower, 0.02 µM
- Ac-[αAllylPro]DL[B5(6)]DEAAFQ[S8]F[Bta]H-NH2 (staple 1-4, 4-11, Stapled peptide composition) [I-506] — within 1.5-fold, 0.025 µM

target: T2, B-cat-Halo; assay: cell-based or functional assay

Point of comparison: Ac-[αAllylPro]D[tBuAla][B5(4)]DDAAFF[PyrS2″][Phe(2-Cl)][Bta][Thr(ol)] (staple 1-4, 4-11) [I-1311], “NanoBRET Abs IC50 (uM); B-cat-Halo / TCF4-Luc in HEK293 cells” value 20.6 µM. Against it:
- Ac-[αAllylPro]D[Cha][B5(4)]DTAAFT[PyrS2″][Phe(2-Cl)][Bta][Thr(ol)] (staple 1-4, 4-11) [I-1310] — not separable, > 20 µM
- Ac-[αAllylPro]D[tBuAla][B5(4)]DDAAFT[S8][Phe(2-Cl)][Bta][Thr(ol)] (staple 1-4, 4-11) [I-1308] — 1.7-fold lower, 11.9 µM
- Ac-[αAllylPro]D[tBuAla][B5(4)]DTAAFT[PyrS2″][Phe(2-Cl)][Bta][Thr(ol)] (staple 1-4, 4-11) [I-1309] — within 1.5-fold, 28.6 µM
- Ac-[αAllylPro]D[tBuAla][B5(4)]DDAAFF[PyrS2][3Thi][Bta][Thr(ol)] (staple 1-4, 4-11) [I-1303] — 2.3-fold lower, 9.1 µM
- Ac-[αAllylPro]N[tBuAla][B5(4)]DDAAFL[PyrS2][3Thi][Bta][Thr(ol)] (staple 1-4, 4-11) [I-1304] — 1.6-fold higher, 33.6 µM
- Ac-[αAllylPro]D[Cha][B5(4)]DDAAFL[PyrS2″][Phe(2-Cl)][Bta][Thr(ol)] (staple 1-4, 4-11) [I-1307] — 1.9-fold higher, 38.8 µM

target: T3, B-cat-Halo (NanoBRET construct …); assay: cell-based or functional assay

Point of comparison: Ac-[αAllylPro]DA[B5(20)]DEAAFN[S8][3Thi][Bta]H-NH2 (staple 1-4, 4-11; also: later-eluting HPLC peak of staple isomers) [I-516], “NanoBRET Abs IC50” value 30.5 µM. Against it:
- Ac-[αAllylPro]DI[B5(20)]DEAAFN[S8][3Thi][Bta]H-NH2 (staple 1-4, 4-11) [I-517] — 3.1-fold lower, 9.7 µM
- Ac-[αAllylPro]DI[B5(20)]DEAAFN[S8][3Thi][Bta]Q-NH2 (staple 1-4, 4-11; also: later-eluting HPLC peak of staple isomers) [I-521] — 2-fold lower, 15.4 µM
- Ac-[αAllylPro]DI[B5(20)]DEAAFN[S8][Phe(2-OMe)][Bta]H-NH2 (staple 1-4, 4-11, Stapled peptide composition) [I-512] — 2.5-fold lower, 12.3 µM
- Ac-[αAllylPro]DI[B5(20)]DEAAFN[S8][Phe(2-CONH2)][Bta]H-NH2 (staple 1-4, 4-11, Stapled peptide composition) [I-514] — not separable, > 20 µM
- Ac-[αAllylPro]DL[B5(6)]DEAAFQ[S8]F[Bta]H-NH2 (staple 1-4, 4-11, Stapled peptide composition) [I-506] — 3.4-fold lower, 8.9 µM
- Ac-[αAllylPro]DA[B5(20)]DEAAFN[S8][3Thi][Bta]Q-NH2 (staple 1-4, 4-11; also: later-eluting HPLC peak of staple isomers) [I-519] — within 1.5-fold, 28.8 µM

target: T4, full-length beta-Catenin (Uniprot ID …); assay: fluorescence polarization competition; full-length beta-catenin; competitor 5FAM-TCF4(10-53) probe
Protocol: as §1

Point of comparison: Ac-[αAllylPro]DF[B5(16)]DDALFS[PyrS2″][Phe(2-Cl)][Bta]Q-NH2 (staple 1-4, 4-11, stapled peptide) [I-1154], EC50 0.045 µM. Against it:
- Ac-PD[Cha][R5]DDAAFT[PyrS2(3)][Phe(2-Cl)][Bta]S-NH2 (staple 4-11, stapled peptide (single staple)) [I-1184] — 3.9-fold higher, 0.176 µM
- Ac-[αAllylPro]DF[B5(16)]DDLLFS[PyrS2″][Phe(2-Cl)][Bta]Q-NH2 (staple 1-4, 4-11, stapled peptide) [I-1155] — within 1.5-fold, 0.06 µM
- Ac-[αAllylPro]DF[B5(16)]DDLAFS[PyrS2″][Phe(2-Cl)][Bta]Q-NH2 (staple 1-4, 4-11, stapled peptide) [I-1153] — 3.8-fold lower, 0.012 µM
- Ac-PD[tBuAla][R5]DDAAFN[PyrS2(3)][Phe(2-Cl)][Bta]Q-NH2 (staple 4-11, stapled peptide (single staple)) [I-1183] — 9.1-fold higher, 0.409 µM
- Ac-[αAllylPro]DF[B5(4)]DDLLFT[PyrS2″][Phe(2-Cl)][Bta]S-NH2 (staple 1-4, 4-11, stapled peptide) [I-1158] — 3.7-fold higher, 0.168 µM
- Ac-[αAllylPro]DF[B5(4)]DDALFT[PyrS2″][Phe(2-Cl)][Bta]S-NH2 (staple 1-4, 4-11, stapled peptide) [I-1157] — within 1.5-fold, 0.036 µM
- Ac-[αAllylPro]DF[B5(16)]DDLAFT[PyrS2″][Phe(2-Cl)][Bta]S-NH2 (staple 1-4, 4-11, stapled peptide) [I-1156] — 3.2-fold lower, 0.014 µM

target: T5, B-cat-Halo (beta-catenin HaloTag …); assay: cell-based or functional assay

Point of comparison: Ac-[αAllylPro]D[tBuAla][B5″]DDAAFL[S8][3Thi][Bta]H-NH2 (staple 1-4, 4-11) [I-1195], “NanoBRET Abs IC50” value 16.2 µM. Against it:
- Ac-[αAllylPro]D[tBuAla][B5(4)]DD[Aib]AFL[PyrS2″][3Thi][Bta]Q-NH2 (staple 1-4, 4-11) [I-1177] — 3.8-fold lower, 4.3 µM
- Ac-[αAllylPro]D[tBuAla][B5″]DDAAFL[S8][3Thi][Bta]Q-NH2 (staple 1-4, 4-11) [I-1188] — 2.2-fold lower, 7.2 µM
